According to PMC3405243, “Segmental isotopic labeling of a 140 kDa dimeric multi-domain protein CheA from Escherichia coli by expressed protein ligation and protein trans-splicing” (Journal of Biomolecular Nmr, 2012):
Changes are numbered by the printed parent chain. In names and notes the source's numbering stands.

T1: ligated CheA P1(Q153)/(S154C)P2–5 produced by expressed protein ligation (EPL) (E. coli, UniProt P07363 1-654, S154C)
T1 construct: CheA, E. coli, amplified from genomic DNA of strain BL21; Inteins and CBD of both fragments were removed before ligation; also called ligation product of P1/P2–5; source: fragments expressed in E. coli BL21-CodonPlus (DE3)-RP, purified, ligated in vitro (EPL)
T1 sequence (looked up): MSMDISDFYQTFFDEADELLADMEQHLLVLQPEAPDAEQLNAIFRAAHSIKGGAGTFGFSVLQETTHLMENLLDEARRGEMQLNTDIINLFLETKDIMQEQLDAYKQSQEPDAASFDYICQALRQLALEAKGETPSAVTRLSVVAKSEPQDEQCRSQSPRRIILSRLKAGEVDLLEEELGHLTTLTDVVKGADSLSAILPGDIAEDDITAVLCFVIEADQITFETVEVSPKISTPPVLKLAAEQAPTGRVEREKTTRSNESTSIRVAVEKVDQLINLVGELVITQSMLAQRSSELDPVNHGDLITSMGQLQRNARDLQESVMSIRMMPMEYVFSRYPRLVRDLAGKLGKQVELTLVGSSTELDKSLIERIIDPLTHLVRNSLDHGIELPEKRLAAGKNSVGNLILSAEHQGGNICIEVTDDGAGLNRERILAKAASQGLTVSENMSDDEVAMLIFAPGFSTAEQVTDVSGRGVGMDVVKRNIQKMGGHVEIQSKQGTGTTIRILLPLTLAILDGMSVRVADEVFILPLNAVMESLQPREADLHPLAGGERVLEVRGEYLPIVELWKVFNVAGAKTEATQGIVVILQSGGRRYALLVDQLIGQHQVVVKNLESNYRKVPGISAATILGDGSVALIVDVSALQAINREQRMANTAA

B1: (S154C)P2–5 domains of CheA (domain or fragment, E. coli, UniProt P07363 154-654, looked up)
chain: CRSQSPRRIILSRLKAGEVDLLEEELGHLTTLTDVVKGADSLSAILPGDIAEDDITAVLCFVIEADQITFETVEVSPKISTPPVLKLAAEQAPTGRVEREKTTRSNESTSIRVAVEKVDQLINLVGELVITQSMLAQRSSELDPVNHGDLITSMGQLQRNARDLQESVMSIRMMPMEYVFSRYPRLVRDLAGKLGKQVELTLVGSSTELDKSLIERIIDPLTHLVRNSLDHGIELPEKRLAAGKNSVGNLILSAEHQGGNICIEVTDDGAGLNRERILAKAASQGLTVSENMSDDEVAMLIFAPGFSTAEQVTDVSGRGVGMDVVKRNIQKMGGHVEIQSKQGTGTTIRILLPLTLAILDGMSVRVADEVFILPLNAVMESLQPREADLHPLAGGERVLEVRGEYLPIVELWKVFNVAGAKTEATQGIVVILQSGGRRYALLVDQLIGQHQVVVKNLESNYRKVPGISAATILGDGSVALIVDVSALQAINREQRMANTAA
notes: CheA P2–5 domains, E. coli, amplified from genomic DNA of strain BL21, residues S154 to A654 with cysteine at the N-terminus; also called unreacted (S154C)P2–5; unreacted P2–5; source: E. coli BL21-CodonPlus (DE3)-RP, purified (chitin beads, intein cleavage); not shown: CBD-Ssp DnaB intein, N-terminal, cleaved
B2: ligated CheA P1(Q153G)/(S154C)P2–5 produced by expressed protein ligation (EPL) (enzyme, E. coli, UniProt P07363 1-654, looked up)
chain: T1 sequence (looked up) with Q153G
notes: CheA, E. coli, amplified from genomic DNA of strain BL21; P1 fragment was made as a C-terminal Mxe GyrA intein-CBD fusion and P2–5 as an N-terminal CBD-Ssp DnaB intein fusion (pTWIN1); both inteins were removed before ligation; NMR samples were [2H,15N]-labeled in P1; UniProt entry is of strain K-12; the DNA was from strain BL21; also called Q153G/S154C dimer; ligated product
B3: ligated CheA P12^(2)/^(5)P3–5 produced by protein trans-splicing (PTS) in vivo (enzyme, E. coli)
chain: T1 sequence (looked up) with C154S, K239G, L240S, A241C, A242F, E243N, Q244G, A245T
notes: CheA P12 domains, E. coli, amplified from genomic DNA of strain BL21, residues 1–238; stands instead of KLAAEQA of the P2-P3 linker; CheA P3–5 domains, E. coli, amplified from genomic DNA of strain BL21, residues 246–654; H6-Smt3 was removed with Ulp1; results and methods give a different order of SEC and tag removal, so its state at the SEC is open; P12 part [2H,15N]-labeled in the NMR sample; …

Columns and labels:
[1] = biological target: B2; assay: co-purification (SEC, then separation by anion exchange chromatography); EPL reaction mixture of purified fragments; Superdex 200, then ResourceQ in TEDG buffer with a 0–500 mM NaCl gradient; heterodimer separated from the ligated homodimer; conditions: both partners purified
[2] = biological target: T1, ligated CheA P1(Q153)/(S154C)P2–5 …; assay: as above; conditions: both partners purified
[3] = biological target: the molecule itself; assay: SEC; HiLoad 16/60 Superdex 200 prep grade, TEDG buffer (50 mM Tris pH 7.5, 0.5 mM EDTA, 2 mM DTT, 10% glycerol) with 150 mM NaCl; elution volume compared with immunoglobulin G (158 kDa)

Binder | binding result [1] | binding result [2] | stoichiometry N [3]
B1 | binds | binds | –
B2 | – | – | 2
B3 | – | – | 2
